Measured values: publication PMC12412624, “Engineered Cas12j‐8 is a Versatile Platform for Multiplexed Genome Modulation in Mammalian Cells”
Residue numbers refer to the chain shown, from its start.

What was measured:
[1] = system: T1, dCas12j-8 D403R D403R;D369A;E567A;D658A (bacteriophage (metagenome)); conditions: HEK293T cells; panel 1c (compare within a panel only); scale: mean GFP / mean GFP of wild type, printed, no background subtraction
T1 sequence: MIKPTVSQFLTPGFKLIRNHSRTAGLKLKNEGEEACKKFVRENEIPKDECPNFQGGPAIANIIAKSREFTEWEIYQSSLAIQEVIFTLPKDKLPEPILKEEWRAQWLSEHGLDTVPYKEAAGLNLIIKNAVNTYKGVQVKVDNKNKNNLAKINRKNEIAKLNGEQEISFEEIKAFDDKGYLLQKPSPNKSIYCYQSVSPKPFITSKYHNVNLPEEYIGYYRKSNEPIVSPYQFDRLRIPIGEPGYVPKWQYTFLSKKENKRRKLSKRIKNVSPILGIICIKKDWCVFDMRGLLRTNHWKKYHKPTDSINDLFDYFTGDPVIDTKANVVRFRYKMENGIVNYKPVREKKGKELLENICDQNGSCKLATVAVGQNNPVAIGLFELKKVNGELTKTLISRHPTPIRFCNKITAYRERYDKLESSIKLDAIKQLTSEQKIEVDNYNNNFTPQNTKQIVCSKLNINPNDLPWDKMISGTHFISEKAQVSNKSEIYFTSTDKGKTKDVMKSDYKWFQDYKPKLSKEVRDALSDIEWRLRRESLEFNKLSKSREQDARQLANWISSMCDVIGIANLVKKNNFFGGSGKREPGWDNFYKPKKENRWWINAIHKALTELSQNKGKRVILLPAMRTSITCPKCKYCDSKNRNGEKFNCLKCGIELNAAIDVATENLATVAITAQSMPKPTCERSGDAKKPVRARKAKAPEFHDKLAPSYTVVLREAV

[2] = system: T2, dCas12j-8 E547R E547R;D369A;E567A;D658A (bacteriophage (metagenome)); conditions: HEK293T cells; panel 1c (compare within a panel only); scale: mean GFP / mean GFP of wild type, printed, no background subtraction
T2 sequence: T1 sequence with R403D, E547R

## CUUUCAAGACUAAUAGAUUGCUCCUUACGAGGAGACACUCCCUAUCAGUGAUAGAG / TTNACTCCCTATCAGTGATAGAG / CTCTATCACTGATAGGGAGTNAA [TetO]
[1]
  binding signal: 0.365
[2]
  binding signal: 1.22
